Laboratory results as given in publication PMC9648850.

System: RtrC (Caulobacter crescentus (NA1000?))
Assay: EMSA
Conditions: 200 mM NaCl, 50 ng/ul poly(dI-dC), EMSA: 32.5 mM Tris pH 8 (at 4 C), 200 mM NaCl (chases: 30 mM Tris, 150 mM NaCl), 1 mM EDTA, 30% glycerol, 1 mM DTT, 10 ug/ml BSA, 20 C …

Q: With hfiA promoter probe, labeled as the substance, how does the Kd read?
A: Its Kd is 45 nM.
